Test results published in the supplement of paper PMC11246515.
± gives the standard deviation of the averaged measurements.

Assay: total protein half-life in vivo (active degradation + dilution); higher = more stable protein
[1] = E. coli NCM3722 delta-clpP delta-lon delta-hslV, growth: N-lim chemostat, doubling time 6 h
[2] = E. coli NCM3722 delta-clpP, growth: N-lim chemostat, doubling time 6 h
[3] = E. coli NCM3722 delta-hslV, growth: N-lim chemostat, doubling time 6 h
[4] = E. coli NCM3722 delta-lon, growth: N-lim chemostat, doubling time 6 h
[5] = E. coli NCM3722 delta-smpB, growth: N-lim chemostat, doubling time 6 h
[6] = wild type E. coli NCM3722, growth: C-lim chemostat, doubling time 3 h
[7] = wild type E. coli NCM3722, growth: C-lim chemostat, doubling time 6 h
[8] = wild type E. coli NCM3722, growth: C-lim chemostat, doubling time 12 h
[9] = wild type E. coli NCM3722, growth: N-lim chemostat, doubling time 6 h
[10] = wild type E. coli NCM3722, growth: N-lim chemostat, doubling time 12 h
[11] = wild type E. coli NCM3722, growth: P-lim chemostat, doubling time 6 h
[12] = wild type E. coli NCM3722, growth: P-lim chemostat, doubling time 12 h

Sequence | total protein half-life in vivo [1] [h] | total protein half-life in vivo [2] [h] | total protein half-life in vivo [3] [h] | total protein half-life in vivo [4] [h] | total protein half-life in vivo [5] [h] | total protein half-life in vivo [6] [h] | total protein half-life in vivo [7] [h] | total protein half-life in vivo [8] [h] | total protein half-life in vivo [9] [h] | total protein half-life in vivo [10] [h] | total protein half-life in vivo [11] [h] | total protein half-life in vivo [12] [h]
MRKFTLNIFTLSLGLAVMPMVEAAPTAQQQLLEQVRLGEATHREDLVQQSLYRLELIDPNNPDVVAARFRSLLRQGDIDGAQKQLDRLSQLAPSSNAYKSSRTTMLLSTPDGRQALQQARLQATTGHAEEAVASYNKLFNGAPPEGDIAVEYWSTVAKIPARRGEAINQLKRINADAPGNTGLQNNLALLLFSSDRRDEGFAVLEQMAKSNAGREGASKIWYGQIKDMPVSDASVSALKKYLSIFSDGDSVAAAQSQLAEQQKQLADPAFRARAQGLAAVDSGMAGKAIPELQQAVRANPKDSEALGALGQAYSQKGDRANAVANLEKALALDPHSSNNDKWNSLLKVNRYWLAIQQGDAALKANNPDRAERLFQQARNVDNTDSYAVLGLGDVAMARKDYPAAERYYQQTLRMDSGNTNAVRGLANIYRQQSPEKAEAFIASLSASQRRSIDDIERSLQNDRLAQQAEALENQGKWAQAAALQRQRLALDPGSVWITYRLSQDLWQAGQRSQADTLMRNLAQQKSNDPEQVYAYGLYLSGHDQDRAALAHINSLPRAQWNSNIQELVNRLQSDQVLETANRLRESGKEAEAEAMLRQQPPSTRIDLTLADWAQQRRDYTAARAAYQNVLTREPANADAILGLTEVDIAAGDKAAARSQLAKLPATDNASLNTQRRVALAQAQLGDTAAAQRTFNKLIPQAKSQPPSMESAMVLRDGAKFEAQAGDPTQALETYKDAMVASGVTTTRPQDNDTFTRLTRNDEKDDWLKRGVRSDAADLYRQQDLNVTLEHDYWGSSGTGGYSDLKAHTTMLQVDAPYSDGRMFFRSDFVNMNVGSFSTNADGKWDDNWGTCTLQDCSGNRSQSDSGASVAVGWRNDVWSWDIGTTPMGFNVVDVVGGISYSDDIGPLGYTVNAHRRPISSSLLAFGGQKDSPSNTGKKWGGVRADGVGLSLSYDKGEANGVWASLSGDQLTGKNVEDNWRVRWMTGYYYKVINQNNRRVTIGLNNMIWHYDKDLSGYSLGQGGYYSPQEYLSFAIPVMWRERTENWSWELGASGSWSHSRTKTMPRYPLMNLIPTDWQEEAARQSNDGGSSQGFGYTARALLERRVTSNWFVGTAIDIQQAKDYAPSHFLLYVRYSAAGWQGDMDLPPQPLIPYADW | 6.16 ± 0.12 | 6.7 ± 0.36 | 6.74 ± 0.87 | 6.13 ± 0.61 | 5.66 ± 0.14 | 3.2 ± 0.16 | 6.39 ± 0.4 | 11.2 ± 1.1 | 6.4455 ± 0.00019 | 13.8 ± 0.91 | 6.24 ± 0.29 | 13.3 ± 0.38
MCSIFGVFDIKTDAVELRKKALELSRLMRHRGPDWSGIYASDNAILAHERLSIVDVNAGAQPLYNQQKTHVLAVNGEIYNHQALRAEYGDRYQFQTGSDCEVILALYQEKGPEFLDDLQGMFAFALYDSEKDAYLIGRDHLGIIPLYMGYDEHGQLYVASEMKALVPVCRTIKEFPAGSYLWSQDGEIRSYYHRDWFDYDAVKDNVTDKNELRQALEDSVKSHLMSDVPYGVLLSGGLDSSIISAITKKYAARRVEDQERSEAWWPQLHSFAVGLPGSPDLKAAQEVANHLGTVHHEIHFTVQEGLDAIRDVIYHIETYDVTTIRASTPMYLMSRKIKAMGIKMVLSGEGSDEVFGGYLYFHKAPNAKELHEETVRKLLALHMYDCARANKAMSAWGVEARVPFLDKKFLDVAMRINPQDKMCGNGKMEKHILRECFEAYLPASVAWRQKEQFSDGVGYSWIDTLKEVAAQQVSDQQLETARFRFPYNTPTSKEAYLYREIFEELFPLPSAAECVPGGPSVACSSAKAIEWDEAFKKMDDPSGRAVGVHQSAYK | 3.62 ± 0.55 | 2.71 ± 0.25 | 2.84 ± 0.048 | 3.181 ± 0.025 | 2.55 ± 0.069 | 2.87 ± 0.069 | 4.97 ± 0.21 | 7.86 ± 0.95 | 2.69 ± 0.025 | 3.857 ± 0.0049 | 5.61 ± 0.3 | 10.4 ± 0.4
MKYRIALAVSLFALSAGSYATTLCQEKEQNILKEISYAEKHQNQNRIDGLNKALSEVRANCSDSQLRADHQKKIAKQKDEVAERQQDLAEAKQKGDADKIAKRERKLAEAQEELKKLEARDY | 3.72 ± 0.12 | 3.7 ± 0.11 |  | 5.2 ± 0.22 | 4.66 ± 0.41 |  | 5.88 | 7.58 ± 0.055 | 5.07 ± 1.1 | 9.61 ± 1.1 | 4.12 | 10.6
MLEQMGIAAKQASYKLAQLSSREKNRVLEKIADELEAQSEIILNANAQDVADARANGLSEAMLDRLALTPARLKGIADDVRQVCNLADPVGQVIDGGVLDSGLRLERRRVPLGVIGVIYEARPNVTVDVASLCLKTGNAVILRGGKETCRTNAATVAVIQDALKSCGLPAGAVQAIDNPDRALVSEMLRMDKYIDMLIPRGGAGLHKLCREQSTIPVITGGIGVCHIYVDESVEIAEALKVIVNAKTQRPSTCNTVETLLVNKNIADSFLPALSKQMAESGVTLHADAAALAQLQAGPAKVVAVKAEEYDDEFLSLDLNVKIVSDLDDAIAHIREHGTQHSDAILTRDMRNAQRFVNEVDSSAVYVNASTRFTDGGQFGLGAEVAVSTQKLHARGPMGLEALTTYKWIGIGDYTIRA | 5.127 ± 0.031 | 4.65 ± 0.2 | 4.64 ± 0.14 | 4.75 ± 0.29 | 4.5 ± 0.067 | 3.12 ± 0.3 | 5.68 ± 0.2 | 10.9 ± 0.47 | 4.65 ± 0.12 | 7.82 ± 0.18 | 5.31 ± 0.65 | 12.15 ± 0.096
MIPDVSQALAWLEKHPQALKGIQRGLERETLRVNADGTLATTGHPEALGSALTHKWITTDFAEALLEFITPVDGDIEHMLTFMRDLHRYTARNMGDERMWPLSMPCYIAEGQDIELAQYGTSNTGRFKTLYREGLKNRYGALMQTISGVHYNFSLPMAFWQAKCGDISGADAKEKISAGYFRVIRNYYRFGWVIPYLFGASPAICSSFLQGKPTSLPFEKTECGMYYLPYATSLRLSDLGYTNKSQSNLGITFNDLYEYVAGLKQAIKTPSEEYAKIGIEKDGKRLQINSNVLQIENELYAPIRPKRVTRSGESPSDALLRGGIEYIEVRSLDINPFSPIGVDEQQVRFLDLFMVWCALADAPEMSSSELACTRVNWNRVILEGRKPGLTLGIGCETAQFPLPQVGKDLFRDLKRVAQTLDSINGGEAYQKVCDELVACFDNPDLTFSARILRSMIDTGIGGTGKAFAEAYRNLLREEPLEILREEDFVAEREASERRQQEMEAADTEPFAVWLEKHA [P0A6W9] | 4.67 ± 0.094 | 4.57 ± 0.48 | 4.96 ± 0.18 | 5.15 ± 0.6 | 4.55 ± 0.18 | 3.36 ± 0.2 | 6.04 ± 0.38 | 9.533 ± 0.031 | 4.35 ± 0.33 | 7.2 ± 0.27 | 6.1209 ± 0.0053 | 11.4 ± 0.35
MIFTLRPYQQEAVDATLNHFRRHKTPAVIVLPTGAGKSLVIAELARLARGRVLVLAHVKELVAQNHAKYQALGLEADIFAAGLKRKESHGKVVFGSVQSVARNLDAFQGEFSLLIVDECHRIGDDEESQYQQILTHLTKVNPHLRLLGLTATPFRLGKGWIYQFHYHGMVRGDEKALFRDCIYELPLRYMIKHGYLTPPERLDMPVVQYDFSRLQAQSNGLFSEADLNRELKKQQRITPHIISQIMEFAATRKGVMIFAATVEHAKEIVGLLPAEDAALITGDTPGAERDVLIENFKAQRFRYLVNVAVLTTGFDAPHVDLIAILRPTESVSLYQQIVGRGLRLAPGKTDCLILDYAGNPHDLYAPEVGTPKGKSDNVPVQVFCPACGFANTFWGKTTADGTLIEHFGRRCQGWFEDDDGHREQCDFRFRFKNCPQCNAENDIAARRCRECDTVLVDPDDMLKAALRLKDALVLRCSGMSLQHGHDEKGEWLKITYYDEDGADVSERFRLQTPAQRTAFEQLFIRPHTRTPGIPLRWITAADILAQQALLRHPDFVVARMKGQYWQVREKVFDYEGRFRLAHELRG | 5.4 ± 0.095 | 4.39 ± 0.49 | 3.55 ± 0.12 | 3.9 ± 0.26 | 3.3 ± 0.36 | 2.79 ± 0.44 | 4.38 ± 0.35 | 7.46 ± 0.87 | 3.38 ± 0.3 | 5.32 ± 0.49 | 5.37 ± 0.26 | 10.1 ± 0.45
